The text below walks through data of patent US10912815B2, “Inhibitors of mitochondrial fission and methods of use thereof” (The Board of Trustees of the Leland Stanford Junior …, priority 2011, dated 2021).

The experiment addresses T1, Drp1 association with the mitochondria (Homo sapiens, UniProt O00429).
T1 construct: GST (N); host or cells: recombinant GST-Drp1 of unstated origin; mitochondria from mouse liver tissue
Put plainly: Association of recombinant Drp1 (GST-Drp1) with isolated mouse liver mitochondria. It counts as binding. The conditions noted are these: peptide 1 μM, GST-Drp1, FIG. 2C. The procedure:
If the peptides designed do represent PPI surfaces between Drp1 and Fis1, the peptides should inhibit the association of Drp1 with the mitochondria. To obtain isolated mitochondria, SH-5YSH cells were washed with cold phosphate-buffered saline (PBS) and incubated on ice in lysis buffer (250 mM sucrose, 20 mmol/L HEPES-NaOH, pH 7.5, 10 mmol/L KCl, 1.5 mmol/L MgCl2, 1 mmol/L EDTA, protease inhibitor cocktail, phosphatase inhibitor cocktail) for 30 minutes. Cells were scraped and then disrupted 10 times by repeated aspiration through a 25 gauge needle, followed by a 30 gauge needle. Mouse liver tissue was minced and ground by pestle in lysis buffer. The homogenates were spun at 800 g for 10 min at 4° C. and the resulting supernatants were spun at 10,000 g for 20 minutes at 4° C. The pellets were washed with lysis buffer and spun at 10,000 g again for 20 minutes at 4° C. The final pellets were suspended in lysis buffer containing 1% Triton X-100 and were mitochondrial-rich lysate fractions.
Mitochondria isolated from mouse liver were incubated with recombinant Drp1 (GST-Drp1). Drp1 bound to mitochondrial preparation and only P110 (1 μM) reduced this association by >60% (p<0.01, FIG. 2C); peptide carrier TAT47-57 or the other Drp1-derived peptides had no effect. The mitochondrial membrane protein VDAC was used as marker and loading control.

T1 sequence (O00429 1-710 isoform O00429-3): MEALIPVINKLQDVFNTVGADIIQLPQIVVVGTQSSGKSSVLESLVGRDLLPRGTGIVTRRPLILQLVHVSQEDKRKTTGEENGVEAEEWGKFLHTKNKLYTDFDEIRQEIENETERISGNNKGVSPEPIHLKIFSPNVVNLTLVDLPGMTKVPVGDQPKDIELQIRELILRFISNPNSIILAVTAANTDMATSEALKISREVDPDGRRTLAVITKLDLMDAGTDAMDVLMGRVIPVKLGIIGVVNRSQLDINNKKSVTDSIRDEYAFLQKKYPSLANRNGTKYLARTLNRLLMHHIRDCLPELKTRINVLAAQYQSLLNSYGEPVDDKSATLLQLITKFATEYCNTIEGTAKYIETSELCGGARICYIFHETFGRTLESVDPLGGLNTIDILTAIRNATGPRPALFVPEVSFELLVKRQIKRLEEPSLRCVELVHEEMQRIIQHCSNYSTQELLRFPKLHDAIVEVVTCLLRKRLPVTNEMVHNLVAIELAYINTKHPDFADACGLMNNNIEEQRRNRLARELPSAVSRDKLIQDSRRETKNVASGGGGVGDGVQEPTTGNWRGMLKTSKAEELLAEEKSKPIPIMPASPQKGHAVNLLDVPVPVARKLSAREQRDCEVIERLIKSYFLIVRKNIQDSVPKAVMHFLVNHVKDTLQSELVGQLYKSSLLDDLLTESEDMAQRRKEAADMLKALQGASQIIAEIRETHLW

Regarding “TAT47-57: cell permeating TAT protein-derived peptide carrier, used alone as control peptide”, the “reduction of association of Drp1 with mitochondrial preparation” value was “no effect”.
